Reference: the supplement of paper PMC6757056
± gives the standard deviation of the averaged measurements.

B1: library; a variant is named by its letters at N, in order (parent)
chain: GCUGUCACCGGUGCUUGGUACGUUAUAUUCAGCCGGUCUGAUGAGUCUNNNNNNAGACGAAACAGC

What was measured:
(6R,S)-folinic acid [1] = variants of: B1; assay: normalized RNA/DNA level without ligand (relative to sTRSVctl = 100) (log10 (% of sTRSVctl)); HEK293T overexpressing SLC46A1; higher = less ribozyme self-cleavage, higher mRNA level; conditions: without (6R,S)-folinic acid; ligand present: no
In short: (§1)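 For each 6-well well, 4 µg of library plasmid encoding mCherry-linked ribozyme switches, or eGFP-linked ones in some ligand experiments, was transfected into HEK293T. Any ligand was added 1 h before transfection, and RNA was extracted with EDTA 72 h after it, then reverse-transcribed, amplified, barcoded and sequenced. RNA level was obtained by dividing RNA reads by DNA reads, normalizing to a spiked-in non-cleaving sequence or to the top sequences, then scaling and log-transforming. The top set was 25 sequences, scaling was ×100 with log10, and ≥100 DNA reads were required.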

(6R,S)-folinic acid [2] = variants of: B1; assay: normalized RNA/DNA level with ligand (relative to sTRSVctl = 100) (log10 (% of sTRSVctl)); HEK293T overexpressing SLC46A1; ligand concentration (+) RNA-Seq: 6 mM; higher = less ribozyme self-cleavage, higher mRNA level; conditions: with (6R,S)-folinic acid; ligand present: yes
In short: as §1

Variant | normalized RNA/DNA level without ligand (log10) ((6R,S)-folinic acid [1]) | normalized RNA/DNA level with ligand (log10) ((6R,S)-folinic acid [2])
GCUGUCACCGGUGCUUGGUACGUUAUAUUCAGCCGGUCUGAUGAGUCUUUAGUAAGACGAAACAGC [UUAGUA] | 1.9501 ± 0.0015 | 1.98 ± 0.026
GCUGUCACCGGUGCUUGGUACGUUAUAUUCAGCCGGUCUGAUGAGUCUUUACUUAGACGAAACAGC [UUACUU] | 1.991 ± 0.0083 | 1.994 ± 0.019
GCUGUCACCGGUGCUUGGUACGUUAUAUUCAGCCGGUCUGAUGAGUCUUUACUAAGACGAAACAGC [UUACUA] | 1.978 ± 0.0023 | 2.01 ± 0.034
GCUGUCACCGGUGCUUGGUACGUUAUAUUCAGCCGGUCUGAUGAGUCUUUACUCAGACGAAACAGC [UUACUC] | 2.048 ± 0.0074 | 2.03 ± 0.027
GCUGUCACCGGUGCUUGGUACGUUAUAUUCAGCCGGUCUGAUGAGUCUGUAGCGAGACGAAACAGC [GUAGCG] | 1.93 ± 0.023 | 2.01 ± 0.036
GCUGUCACCGGUGCUUGGUACGUUAUAUUCAGCCGGUCUGAUGAGUCUGUAGCCAGACGAAACAGC [GUAGCC] | 2.021 ± 0.016 | 2.051 ± 0.0086
GCUGUCACCGGUGCUUGGUACGUUAUAUUCAGCCGGUCUGAUGAGUCUGUAGCAAGACGAAACAGC [GUAGCA] | 1.973 ± 0.0074 | 2 ± 0.022
GCUGUCACCGGUGCUUGGUACGUUAUAUUCAGCCGGUCUGAUGAGUCUAUACUAAGACGAAACAGC [AUACUA] | 1.97 ± 0.026 | 1.99 ± 0.025
GCUGUCACCGGUGCUUGGUACGUUAUAUUCAGCCGGUCUGAUGAGUCUAUACUGAGACGAAACAGC [AUACUG] | 1.939 ± 0.0046 | 2.01 ± 0.03
GCUGUCACCGGUGCUUGGUACGUUAUAUUCAGCCGGUCUGAUGAGUCUAUACUUAGACGAAACAGC [AUACUU] | 2.018 ± 0.013 | 2.01 ± 0.043
GCUGUCACCGGUGCUUGGUACGUUAUAUUCAGCCGGUCUGAUGAGUCUGUAGGAAGACGAAACAGC [GUAGGA] | 1.946 ± 0.0025 | 2 ± 0.047
GCUGUCACCGGUGCUUGGUACGUUAUAUUCAGCCGGUCUGAUGAGUCUGUAGGUAGACGAAACAGC [GUAGGU] | 1.998 ± 0.013 | 2.04 ± 0.03
GCUGUCACCGGUGCUUGGUACGUUAUAUUCAGCCGGUCUGAUGAGUCUGUAGGCAGACGAAACAGC [GUAGGC] | 1.881 ± 0.011 | 2.0344 ± 0.00079
GCUGUCACCGGUGCUUGGUACGUUAUAUUCAGCCGGUCUGAUGAGUCUUUAGGUAGACGAAACAGC [UUAGGU] | 1.942 ± 0.0098 | 1.971 ± 0.016
GCUGUCACCGGUGCUUGGUACGUUAUAUUCAGCCGGUCUGAUGAGUCUAUAGAAAGACGAAACAGC [AUAGAA] | 1.937 ± 0.0051 | 1.98 ± 0.028
GCUGUCACCGGUGCUUGGUACGUUAUAUUCAGCCGGUCUGAUGAGUCUCUAGCUAGACGAAACAGC [CUAGCU] | 2.033 ± 0.0023 | 1.993 ± 0.014
GCUGUCACCGGUGCUUGGUACGUUAUAUUCAGCCGGUCUGAUGAGUCUCUAGCAAGACGAAACAGC [CUAGCA] | 2.038 ± 0.0039 | 2.041 ± 0.0037
GCUGUCACCGGUGCUUGGUACGUUAUAUUCAGCCGGUCUGAUGAGUCUCUAGCCAGACGAAACAGC [CUAGCC] | 2.024 ± 0.015 | 1.98 ± 0.036
GCUGUCACCGGUGCUUGGUACGUUAUAUUCAGCCGGUCUGAUGAGUCUCUAGCGAGACGAAACAGC [CUAGCG] | 2.0229 ± 0.0015 | 2.05 ± 0.042
GCUGUCACCGGUGCUUGGUACGUUAUAUUCAGCCGGUCUGAUGAGUCUAUAGUCAGACGAAACAGC [AUAGUC] | 2.056 ± 0.0045 | 2.03 ± 0.033
GCUGUCACCGGUGCUUGGUACGUUAUAUUCAGCCGGUCUGAUGAGUCUAUAGCUAGACGAAACAGC [AUAGCU] | 2 ± 0.016 | 2 ± 0.046
